# Target: FZD7 class proteins
# Assay: ELISA of biotinylated Wnt binding to FZD CRD-Fc with or without peptide
substance,measurement,value
Biotinylated Wnt3a (from UniProt P27467 19-352) (ligand),fold enhancement of binding by Fz7-21 or dFz7-21,1.5 to 2 fold

# — patent publication US20190359653A1, “SELECTIVE PEPTIDE INHIBITORS OF FRIZZLED” (Genentech, Inc., priority 2016, published 2019)
